B1: glmS ribozyme (parent)
chain: AUAAAAGCGCCAGAACUACAGAAAUGUAGUUGACGAGGAGGAGGUUUAUCGAAUUUUCGGCGGAUGCCUCCAAA

± gives the standard error. For some assays here: This sample holds only a part of the variants without activity.

What all share (settings): with glucosamine-6-phosphate
Variants of B1 are the subject of series [1]. Kind of series: self-cleavage kobs at 40 uM GlcN6P; higher = faster cleavage; RNA array. An outline of the steps: (§1)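 Barcoded ribozyme variants, transcribed in situ by E. coli RNA polymerase on sequenced MiSeq chips, were followed via a hybridised Cy3 probe at 37 °C. Glucosamine-6-phosphate ranged from 40 μM to 10 mM in HEPES/KCl/Mg(OAc)2 buffer. kobs came from decay fits to per-tile medians, and kcat and KM from weighted Michaelis–Menten fits.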

In series [2] the parent is B1. Kind of series: self-cleavage kobs at 10000 uM GlcN6P; higher = faster cleavage; RNA array. In outline:
as §1

Series [3] covers variants of B1. The series can be described thus: self-cleavage kobs at 160 uM GlcN6P; higher = faster cleavage; RNA array. In outline:
as §1

The variants in series [4] derive from B1. Kind of series: self-cleavage kobs at 640 uM GlcN6P; higher = faster cleavage; RNA array. In outline: as §1
Series [5] covers variants of B1. Kind of series: self-cleavage kobs at 2500 uM GlcN6P; higher = faster cleavage; RNA array. An outline of the steps:
as §1

In series [6] the parent is B1. Kind of series: kcat; higher = faster cleavage; RNA array. In outline: as §1
In series [7] the parent is B1. Kind of series: KM; higher = weaker cofactor use; RNA array. An outline of the steps:
as §1

On to A14C A53C G62C C68G, for which the “self-cleavage kobs at 40 uM GlcN6P” value in series [1] was below 1e-05 s⁻¹. Moreover, in series [2], the “self-cleavage kobs at 10000 uM GlcN6P” value was below 1e-05 s⁻¹.
U55G C67G: the “self-cleavage kobs at 40 uM GlcN6P” value in series [1] came to 0.000127 ± 1.4e-05 s⁻¹. In addition, the “self-cleavage kobs at 160 uM GlcN6P” value in series [3] turned out to be 0.000234 ± 5.1e-05 s⁻¹. For the same variant, in series [4], the “self-cleavage kobs at 640 uM GlcN6P” value was determined as 0.000819 ± 0.00012 s⁻¹. In series [5], the “self-cleavage kobs at 2500 uM GlcN6P” value stood at 0.000472 ± 0.0001 s⁻¹. Besides, the “self-cleavage kobs at 10000 uM GlcN6P” value in series [2] stood at 0.00597 ± 0.00099 s⁻¹.
In general, kcat refers to the number of substrate molecules converted per active site and unit of time at saturation. Take A64U C70G: the kcat in series [6] was 1.26e-05 ± 2.6e-06 s⁻¹. Further, in series [1], the “self-cleavage kobs at 40 uM GlcN6P” value was below 1e-05 s⁻¹.
For the variant C11G C16A A33U C58G, in series [1], the “self-cleavage kobs at 40 uM GlcN6P” value is below 1e-05 s⁻¹.
As a reminder, the KM is the concentration of substrate that gives half-maximal velocity. A42G A53G: the KM in series [7] is 248 ± 95 µM. Further, the “self-cleavage kobs at 40 uM GlcN6P” value in series [1] stood at 0.00144 ± 0.00031 s⁻¹. Moreover, the “self-cleavage kobs at 160 uM GlcN6P” value in series [3] was found to be 0.00422 ± 0.0013 s⁻¹. In addition, the “self-cleavage kobs at 640 uM GlcN6P” value in series [4] turned out to be 0.00893 ± 0.0025 s⁻¹. For the same variant, the “self-cleavage kobs at 2500 uM GlcN6P” value in series [5] came to 0.0414 ± 0.018 s⁻¹. In addition, the “self-cleavage kobs at 10000 uM GlcN6P” value in series [2] was 0.00932 ± 0.0024 s⁻¹.
Consider A42G G63C, for which the “self-cleavage kobs at 40 uM GlcN6P” value in series [1] is below 1e-05 s⁻¹. For the same variant, in series [3], the “self-cleavage kobs at 160 uM GlcN6P” value is below 1e-05 s⁻¹. Besides, in series [4], the “self-cleavage kobs at 640 uM GlcN6P” value is below 1e-05 s⁻¹. Further, in series [5], the “self-cleavage kobs at 2500 uM GlcN6P” value is below 1e-05 s⁻¹. In series [2], the “self-cleavage kobs at 10000 uM GlcN6P” value is below 1e-05 s⁻¹.
G40U G63C: the “self-cleavage kobs at 40 uM GlcN6P” value in series [1] is below 1e-05 s⁻¹. In addition, the “self-cleavage kobs at 160 uM GlcN6P” value in series [3] was below 1e-05 s⁻¹. Also, the “self-cleavage kobs at 640 uM GlcN6P” value in series [4] was below 1e-05 s⁻¹. For the same variant, in series [5], the “self-cleavage kobs at 2500 uM GlcN6P” value is below 1e-05 s⁻¹. Besides, the “self-cleavage kobs at 10000 uM GlcN6P” value in series [2] was below 1e-05 s⁻¹.
Regarding G63U U65G, the “self-cleavage kobs at 40 uM GlcN6P” value in series [1] was below 1e-05 s⁻¹. Besides, the “self-cleavage kobs at 160 uM GlcN6P” value in series [3] was below 1e-05 s⁻¹. Further, the “self-cleavage kobs at 640 uM GlcN6P” value in series [4] is below 1e-05 s⁻¹. For the same variant, the “self-cleavage kobs at 2500 uM GlcN6P” value in series [5] is below 1e-05 s⁻¹. The “self-cleavage kobs at 10000 uM GlcN6P” value in series [2] is below 1e-05 s⁻¹.
In the case of A33G U65C C71A, the “self-cleavage kobs at 40 uM GlcN6P” value in series [1] is below 1e-05 s⁻¹. For the same variant, the “self-cleavage kobs at 640 uM GlcN6P” value in series [4] is below 1e-05 s⁻¹.
For G9A G62C, the “self-cleavage kobs at 40 uM GlcN6P” value in series [1] was below 1e-05 s⁻¹. For the same variant, the “self-cleavage kobs at 640 uM GlcN6P” value in series [4] was below 1e-05 s⁻¹. The “self-cleavage kobs at 10000 uM GlcN6P” value in series [2] is below 1e-05 s⁻¹.
As for C34A G63U, in series [1], the “self-cleavage kobs at 40 uM GlcN6P” value was below 1e-05 s⁻¹. The “self-cleavage kobs at 160 uM GlcN6P” value in series [3] is below 1e-05 s⁻¹. Moreover, in series [4], the “self-cleavage kobs at 640 uM GlcN6P” value was below 1e-05 s⁻¹. Besides, the “self-cleavage kobs at 10000 uM GlcN6P” value in series [2] is below 1e-05 s⁻¹.
Consider G32C G43C G51U, for which the “self-cleavage kobs at 40 uM GlcN6P” value in series [1] is below 1e-05 s⁻¹. In series [2], the “self-cleavage kobs at 10000 uM GlcN6P” value is below 1e-05 s⁻¹.
As to G13C G43U, the “self-cleavage kobs at 40 uM GlcN6P” value in series [1] was below 1e-05 s⁻¹. In series [4], the “self-cleavage kobs at 640 uM GlcN6P” value was below 1e-05 s⁻¹. The “self-cleavage kobs at 2500 uM GlcN6P” value in series [5] was below 1e-05 s⁻¹. Moreover, the “self-cleavage kobs at 10000 uM GlcN6P” value in series [2] was below 1e-05 s⁻¹.
In the case of C11U G13U U57C G62C C67A, the “self-cleavage kobs at 40 uM GlcN6P” value in series [1] was below 1e-05 s⁻¹.
For A36C G41C U54G G66C C68G, in series [1], the “self-cleavage kobs at 40 uM GlcN6P” value is below 1e-05 s⁻¹.
For U47G G62A, the “self-cleavage kobs at 40 uM GlcN6P” value in series [1] was below 1e-05 s⁻¹. Moreover, in series [4], the “self-cleavage kobs at 640 uM GlcN6P” value is below 1e-05 s⁻¹.
Take A15U A39U U46A: the “self-cleavage kobs at 40 uM GlcN6P” value in series [1] was below 1e-05 s⁻¹.
In the case of A42U A53G, in series [6], the kcat was 0.000266 ± 4.7e-05 s⁻¹. The KM in series [7] stood at 2160 ± 870 µM. The “self-cleavage kobs at 640 uM GlcN6P” value in series [4] was found to be 4.83e-05 ± 1.2e-05 s⁻¹. Further, in series [5], the “self-cleavage kobs at 2500 uM GlcN6P” value stood at 0.000175 ± 2.1e-05 s⁻¹. Besides, the “self-cleavage kobs at 10000 uM GlcN6P” value in series [2] is 0.000206 ± 2.4e-05 s⁻¹.
Consider U57A C61U, for which the “self-cleavage kobs at 40 uM GlcN6P” value in series [1] was below 1e-05 s⁻¹. Moreover, in series [4], the “self-cleavage kobs at 640 uM GlcN6P” value was below 1e-05 s⁻¹. Further, the “self-cleavage kobs at 2500 uM GlcN6P” value in series [5] is below 1e-05 s⁻¹. The “self-cleavage kobs at 10000 uM GlcN6P” value in series [2] is below 1e-05 s⁻¹.
For G9C C11U U31C A36G G38A C50G U69G C70G, the “self-cleavage kobs at 40 uM GlcN6P” value in series [1] was found to be 0.00075 ± 0.00022 s⁻¹. Also, the “self-cleavage kobs at 10000 uM GlcN6P” value in series [2] came to 0.000818 ± 0.00021 s⁻¹.
With G29A A39U A42U, the kcat in series [6] came out at 0.000919 ± 0.00015 s⁻¹. Besides, the KM in series [7] was 3000 ± 790 µM. Further, in series [3], the “self-cleavage kobs at 160 uM GlcN6P” value came to 4.77e-05 ± 2e-05 s⁻¹. The “self-cleavage kobs at 640 uM GlcN6P” value in series [4] was 0.000148 ± 3.3e-05 s⁻¹. Besides, in series [5], the “self-cleavage kobs at 2500 uM GlcN6P” value is 0.000488 ± 0.00012 s⁻¹. Further, the “self-cleavage kobs at 10000 uM GlcN6P” value in series [2] worked out at 0.000685 ± 0.00014 s⁻¹.

Source of the values: the supplement of paper PMC7125110.
